This is an account of results in US20210403565A1 (BIOATLA, published 2021).

In assay [1] the target is T1, recombinant human CTLA4 extracellular domain (human, UniProt P16410 36-161).
T1 construct: extracellular domain; also called huCTLA-4
T1 sequence (looked up): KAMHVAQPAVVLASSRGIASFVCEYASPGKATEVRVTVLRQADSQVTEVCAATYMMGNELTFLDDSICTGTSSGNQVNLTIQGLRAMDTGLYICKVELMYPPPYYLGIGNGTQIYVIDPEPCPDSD
The assay is described as follows: ELISA, wells coated with human CTLA4, assay pH 7.4; lot 6972 in His buffer, T2W; unit from the axis Log[ng/mL]. The procedure:
(§1) Both ELISA and FACS analysis were used to measure the binding activity. […] The amount of bound antibodies was quantified using anti-human IgG antibody conjugated to HRP. The absorbance at 450 nm in each measurement was proportional to the amount of antibodies bound. […] EC50 value (in ng/mL) for binding to human CTLA4 was determined by absorbance at 450 nm against antibody concentration with Prism variable slope of four-parameter dose-response curve, which was calculated using the nonlinear fit (variable slope, four parameters) model built into GraphPad Prism software (version 7.03). The buffers tested included His buffer (His), Tris buffer (Tris), Glutamine buffer (Glu) and no buffer.
On the technique in general: ELISA stands for enzyme-linked immunosorbent assay.

Assay [2] deals with T1, recombinant human CTLA4 extracellular …. Description: ELISA, wells coated with human CTLA4, assay pH 6.0; lot 6972 in Tris buffer, T0; unit from the axis Log[ng/mL]. The procedure:
as §1

The target of assay [3] is T2, human CTLA4 expressed on the cell surface of CHO cells (human, UniProt P16410 36-223).
T2 construct: whole, on cells; also called CHO-huCTLA4; huCTLA4
T2 sequence (looked up): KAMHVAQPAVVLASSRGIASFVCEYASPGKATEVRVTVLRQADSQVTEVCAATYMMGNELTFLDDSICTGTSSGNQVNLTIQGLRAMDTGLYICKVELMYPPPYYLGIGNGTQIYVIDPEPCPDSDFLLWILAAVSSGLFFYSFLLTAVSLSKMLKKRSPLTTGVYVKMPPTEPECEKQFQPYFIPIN
Description: FACS, cells expressing human CTLA4, assay pH 7.4, MFI; lot 6972 in Glu buffer, T2W; unit from the axis Log[ng/mL]. The procedure:
(§2) The amount of bound antibodies was quantified using anti-human IgG antibody conjugated to fluorophores. The MFI in each reaction was proportional to the amount of antibodies bound. The EC₅₀ value (in ng/mL) for binding to human CTLA4 on cells was determined by MFI of the singlets population against antibody concentration with a Prism variable slope of four-parameter dose-response curve, which was calculated using the nonlinear fit (variable slope, four parameters) model built into GraphPad Prism software (version 7.03).
(In flow cytometry, cells or beads pass a laser one at a time.)

Assay [4] addresses T2, human CTLA4 expressed on the cell …. The assay is described as follows: FACS, CHO cells expressing human CTLA4 (CHO-huCTLA-4), pH 7.4, MFI; no unit in the table, unit from the axis Log Antibodies [ng/ml]. The method, then: (§3) The amount of antibodies bound on the cells was quantified using anti-human IgG antibody conjugated to fluorophores. EC₅₀ values at pH 6.0 and 7.4 for binding to cells were calculated using the nonlinear fit (variable slope, four parameters) model built into GraphPad Prism software (version 7.03). The expression levels of human CTLA4 or cynomolgus CTLA4 on the surface of the CHO cells were determined using a BD QuantiBRITE™ PE kit.
At least two independent duplicate FACS experiments were performed for each antibody using each of the cell lines. The binding activities at different concentrations of the antibodies are plotted in these figures.

Assay [5] has the same target. The assay is described as follows: FACS, cells expressing human CTLA4, assay pH 6.0, MFI; lot 6972 control without test buffer; same column repeated in FIG. 10B and FIG. 10C; unit from the axis Log[ng/mL]. The procedure: as §2
For assay [6] the target is unchanged. Description: FACS, cells expressing human CTLA4, assay pH 7.4, MFI; lot 6978 in Glu buffer, T0; unit from the axis Log[ng/mL]. The method, then:
as §2

Assay [7] has the same target. The assay is described as follows: FACS, cells expressing human CTLA4, assay pH 6.0, MFI; lot 6978 in His buffer, T2W; unit from the axis Log[ng/mL]. The procedure: as §2
Assay [8] has the same target. Description: FACS, cells expressing human CTLA4, assay pH 6.0, MFI; lot 6978 in Tris buffer, T0; unit from the axis Log[ng/mL]. The method, then:
as §2

For assay [9] the target is unchanged. Description: FACS saturation, CHO-huCTLA-4, pH 7.4, MFI, titration up to about log 6.5, curve still rising at the end; no unit in the table, unit from the axis Log Antibodies [ng/ml]. The method, then:
as §3
(§4) Finally, saturations of the antibodies on the CHO cells expressing human or cynomolgus CTLA4 at pH 7.4 were also measured by FACS (FIGS. 8A-8B).

For assay [10], the target named is T3, cynomolgus CTLA4 expressed on the cell surface of CHO cells (cynomolgus, UniProt G7PL88 36-223).
T3 construct: whole, on cells; also called CHO-cynoCTLA4
T3 sequence: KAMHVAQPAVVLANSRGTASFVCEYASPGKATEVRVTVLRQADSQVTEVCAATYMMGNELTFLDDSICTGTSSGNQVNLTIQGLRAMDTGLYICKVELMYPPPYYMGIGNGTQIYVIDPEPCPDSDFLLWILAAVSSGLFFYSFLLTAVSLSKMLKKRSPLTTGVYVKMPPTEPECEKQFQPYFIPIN
The assay is described as follows: FACS saturation, CHO-cynoCTLA-4, pH 7.4, MFI, titration up to about log 6.5; at baseline up to about log 4.5, about 100000 at the end, no plateau; no unit in the table, unit from the axis Log Antibodies [ng/ml]. The method, then: as §3, §4

Assay [11] has as its target T1, recombinant human CTLA4 extracellular …. Description: ELISA, wells coated with human CTLA4, assay pH 7.4; lot 6978 without test buffer; curve still rising at log 3 (OD450 about 0.2), no plateau; same column repeated in FIG. 9E and FIG. 9F; unit from the axis Log[ng/mL]. The method, then: as §1

B1: BA-087-05-19 (antibody, V domains shown)
VH: EVQLVESGGGLVQPGGSLRLSCAASGFTFSHYTMHWVRQAPGKGLEWVSFISYDGNNKYYADSVKGRFTISRDNSKNTLYLQMNSLRAEDTAVYYCARTGWLGPFDYWGQGTLVTVSS
VL: AIQLTQSPSSLSASVGDRVTITCRASQYVGSSYLAWYLQKPGQSPQLLIYGAFSRATGIPARFSGSGSGTEFTLTISSLQSEDFAVYYCQQDGSSPWTFGQGTKVEIK
notes: Detected with anti-human IgG and a molecular weight of 146 kDa was used in SPR, so it was tested as a whole IgG; also called BA-087-05-019; BA-087-05-19 (# 6972)
By EC50 is commonly meant the concentration needed to bring the measured effect to its halfway point. For B1, the EC50 in assay [1] came to 0.0758 µg/mL; in assay [2], 0.00591 µg/mL; in assay [3], 0.607 µg/mL; in assay [4], 0.438 µg/mL; in [5] it was 0.223 µg/mL.

B2: BA-087-08-32 (antibody, V domains shown)
VH: EVQLVQSGAEVKKPGATVKISCKVSGFTFSHYTMHWIRQSPSRGLEWLGFISYDGNYKYYADSVKGRFTISRDNAKNSLYLQMNSLRAEDTAVYYCARTGWLGPFDYWGQGTLVTVSS
VL: EIVMTQSPATLSVSPGERATLSCRASQSVGSSYLAWYQQKPGKAPKLLIYGAFSRATGVPSRFSGSGSGTDFTLTISSLQPEDFATYYCQQDGSSPWTFGQGTKVEIK
notes: Detected with anti-human IgG and a molecular weight of 146 kDa was used in SPR, so it was tested as a whole IgG; also called BA-087-08-032; BA-087-08-32 (# 6978)
As to B2, the EC50 in [6] was determined as 0.814 µg/mL; in assay [7], 0.145 µg/mL; in assay [8], 0.152 µg/mL; in assay [9] it was 69.6 µg/mL; in [10], 1650 µg/mL; in assay [11] it was 1.14 µg/mL.
